# Results taken from the nanobody polyreactivity screen of Harvey et al. (2022).
# Assay: yeast display, Sf9 membrane polyspecificity reagent, FACS + sequencing; frameworks hold sequencing errors
# How it was run: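 After 36–48 hours of galactose induction, yeast (Saccharomyces cerevisiae BJ5465) displaying a synthetic nanobody library were stained at 4 °C for 1 hour with 10% biotinylated, detergent-solubilized Sf9 membrane reagent. Streptavidin microbeads enriched the stained cells before FACS sorting into low and high (top ~1%) gates on anti-HA and streptavidin fluorescence. Each clone's polyreactivity label reflects its gate of origin.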
row,Sequence,polyreactivity (PSR sort gate)
1,QVQLVESGGGLVQAGGSLRLSCAASGSTFAVNAMGWYRQAPGKERELVAAISGSGGRTYYADSVKGRFTISRDNAKNTVYLQMNSLKPEETAFYYCATELRAPYRSSGAYHYDYWGQGTQVTVSS,low polyreactivity
2,QFQLVESGGGLVQAGGSLRLSCAASGRIIAFYARGWYRQAPGKERELVAAITSGSSTNYADSVKGRFTISRDNAKNTVYLQMNSLKPEDTAVYYCAAEGLRKGDRTDWKLYEYWGQGTQVTVSS,high polyreactivity
3,QVQLVESGGGLVQAGGSLRLSCAASGSILGYYAMRWYRQAPGKERELVAAITASGGSTYYADSVKGRFTISRDNAKNTVYLQMNSLKPEDTAAYYCAAQYYATYGYWGQGTQVTVSS,low polyreactivity
4,QVQLVESGGGLVQAGGSLRLSCAASRLTFAGNAMGWYRQAPGKEREFVATITWSDGSTRYADSVKGRFTISRDNAKNSVYLQMNSLKPEDTAVSYCNTQYPDYFYEFNYWGQGTQVTVSW,low polyreactivity
5,QVQLVESGAGIVQAGGSLRLSCAASGRTFLDYTMGWYRQAPGKERELVAAIRTSAGSTYYADSVKGRFTISRDNAKKTVYLQLNSLKPEDTAVYYCAAVYYVHYYYSYDYWGQGTQVTVSS,low polyreactivity
6,QVQLVESGGGLVQAGGSLRLSCAASGFIFYRYALGWYRQAPGKERELVAAISRSGGSTYYADSVKVRFTISRDNAKNTVYLQMNSLKPEDTAVYYCAVTGYWYYHDHYSYPSRYYYWGQGTQVTVSS,high polyreactivity
7,QVHLVESGGGLVQAGGSLRLSSAASGFIFGKNDMGWYRQAPGKERELVAAITIGGSTNYADSVKGRFTISRDNAKNTVYLQLNSLKPEDTAVYYCAADSSSLYNYWGQGTQVTVSS,low polyreactivity
8,QVQLVESGGGLVQAGGSLRLSCAASGSTFHPNGMGWYRQAPGQEREFVAAIRRSGGSTYYADSVKGRFTISRDNAKNTVYLQMNSLKPEDTAVYYCAAKHYYYSPYVRYDPPPGYYWGQGTQVTVSS,high polyreactivity
9,QVQLVESGGGLVQAGGSLRLSCAASGRIFPQNAMGWYRQAPGKERELVAAITSDGAITYYADSVKGRFTISRDNAKNTVYLQMNSLKPEDTAVYYCATQGRYYDYDYWGQGTQVTVSS,low polyreactivity
10,QDQLVESGGGLVQAGGSLLLSCAASGSTFYDYVMGWYRQAPGKERELVADISSGGGTNYADSLKGRFTISRDNAKNTVYLQMNSLKPEDTAVYYCAAYRYFFWYEFVSWGQGTQVTVSS,high polyreactivity
11,QVQLVESAGGLVQAGGSHRLSCAASGNIFYYYRMGWYRQEPGKESEFVAAISTSGGNTYYADSVKGRFTISRDNAKNTVYLQINSLKPEDTAVYYCAADDWPWGDAGVDYWGQGTQVTVSS,low polyreactivity
12,QFQLVDSGGGLVQAGGSLRLSCAASGLIFFYYAMGWYRQAPGKERELVAAIRTNYADSVKGRFTISRDNAKNTVYLQMNSLKPEDTAVYYCAAESSQTPTSAFDYWGQGTQVTVSS,low polyreactivity
13,QVQLVESGGGLVQAGGSLRLSCAASGRIFVPYVMGWYRQAPGKERELVASISDSDTSTYYADSVKGRFTISRDNAKNTVYLQMNCLKPEDTAVYYCNVDYWGQGTQVTVSS,low polyreactivity
14,QVQLVDSGGGLVQAGGSLRLSCAASGRTFAFNYAMGWYRQAPGKERELVAAISSSGTRTRYADSVKGRFTISRDNAKNTVYLQMNSLKPEDTAVYYCSKRSLGIGRSNYWGQGTQVTVSS,high polyreactivity
15,QVQLVESAGGGVQAGGSLRLSCPASGIIFVPNTMGWYRQAPGKEREFVASISRRGGNTNYADSVKGRFTISRDNAKNTVYLQMNSLKPEDTAVYYCAKYSSSEGKYDYWGQGTQVTVSS,high polyreactivity
16,QVQLVESGGGLVQAGGSLRLSCAGSGRILVQNDMGWYRQAPGNESELVAAIRSDGSTSYADSVKGRFTISRDNAKYTVYLQMNSLKPEDTAVYYCAARIDWTGGYYDYWGQGTQVTVSS,low polyreactivity
17,QVQLVESGGGIVQAGGSLRLSGAASGFTLTSYAMGWYRQPHGNERELVAGISRGGITYYADSVKGRFTISSDNAKNTVYLQMNSLKPEDTAVYYCATEASFYDPDMYPYGYDYWGQGTQVTVSS,high polyreactivity
18,QVQLVESGGGLVQAGGSLLLSCAASGLTFVANAMGWYSQAPGKERELVARISSSGGSTYYADSVKGRFTISRDNAKNTVYLQMNSLKPEDTAVYYCTARAVRWYYSMNYWGQGTQVTVSS,high polyreactivity
19,QVQLVESGGGLVQAGGSLRLSCAASGSIFYHYAMGWYRQAPGKERELVAAISSGGSTSYADSVKGRFTFSRDNAKNTVYLQMNSLKPEDTAVYYCNARRIRSRSWKYDYWGQGTQVTVSS,low polyreactivity
20,QVQLVESGGGLVQAGGSLRLSCAASGSTFFWYGMGWYRQAPGKERELVAAISSDGSTYYADSVKGRFTISRDNAKNTVYLQMNSLKPEDTAVYYCAAQIPWYIYPGSYTMDYWGQGTQVTVSS,low polyreactivity
21,QVQLVESGGGLVQAGGSLRLSCDASGFIFGRNAMGWYRQAPGKERELVAGISSSGFRTFYADSVKGRFTISRDNAKNTDYLQMNSLKQEDTAVYYCAAEIRYYKYGSYYYWGKGTQVTVSS,high polyreactivity
22,QVQLVESGGGLVQAGGSLRLSCAASGFIFSVNTMGWYRQAPGKERELVAAISGSGGSTYYADSVKGRFTISRDNAKITVYFQMNSLKPDDTAVYYCAARYTVTYDYWGQCTQVTVSS,high polyreactivity

row,Sequence,polyreactivity (PSR sort gate)
1,QVQLVESVGGLVQAGGSLRLSCAASGSTFNQYAMGWYRHPPGKERELVAAISWSGGRTYYADSVKGRFTISRDNAKNTVYLQMNSLKPEDTSVYYCNKLTRDGRKEDYWGQGTQVTVSS,high polyreactivity
2,QVQLVESGGGLVQAGGSLRLSCSASGRIFPWNTMGWYRQAPGKERELVAGITSGGSTNYADSVKGRFTISRDNAKNTVYLQMNSLKPEDTAVYYCAARGYYWYISGVYEYEYWGQGTQVTVSS,low polyreactivity
3,QDQLVESGGGLVQAGGSLRLSCASSGRIFRWYAMGWYRQATGKERELVAAISWSGDSTYYADSVKGRFSISRDNAKNNVYLEMNSLKPEDTAVYYCNYVLYKSDYWGQGTQVTVSS,high polyreactivity
4,QVQLVESGGGLVQAGGSLRLSCAASGHIFFYYTMGWYRQAPGKERELVAGITIGGSTNYADSVKGRFTISRDNAKNTVYLQMNSLKPEVTAVYYCARTVYGARSYDYWGQCTQVTVSS,low polyreactivity
5,QVQLVESGGGLVQAGGSLRLSCAASGRTFYSNAMGWYRESPGKERELVAAISRSGGTTYYADSVKGRFTISRDHAKNTVSLLMNSLKPEDTAVYYCNTLRYGTTGKYDYWGQGTQVTVSS,high polyreactivity
6,QVQLVESGGGLVQAGGSLRLSCAASGSTFYRNAMGAYRQAPGKDREFVAAISFRGGGTYADSVKGRCTISRDNANNTVYLQMNSLKPEDTAVYYCAADHLSYRRRYEYWGQGTQVTVSS,low polyreactivity
7,QFQLVESGGGLVQPGGRLRLICAASGHNFPLNAMGWYRQAPGKERELVAAISRTGGSTYYADSVKGRFTISRDNAKFSVYLQMNSLKPEDTALYFCAKRGQACEDYWGEGTQVTVSS,high polyreactivity
8,QVQLVESGGGLVQAGGSLRLSCAASGITLSYNVMGWYRQEPGKEREFVAAITGGRTYYADSVKGRFTISRDNAKNTVYLQMNSLKPEDTAVYYCAADAPGHEYYYWGQGTQVTVSS,high polyreactivity
9,RVQLVESGGGLVQAGGSLRLSCAASGRIFSYKAMGWYRQAPGKERELVAAITFSGGGTYYADSVKGRFTISRDNAKNPVYLQMNSLKPEDTAVYYCNKVSYGYSSYGYWGQGTQVTVSS,low polyreactivity
10,QVQLVESSGGLVQAGGRLRLSCAASGSTFRGNAMGWYRQAPGKERELVAAITGSGGRTYYADSVKGRFTISRDNAKNTVYLQMNSLKPEDTAVYYCAARTPNIGGIYGYWGQGTQVSVSS,high polyreactivity
11,QVQLVESGGGLVQAGGSLCLSCAASGIFVYNAMGWYRQAPGKEREFVAAINKSGASTFYADSVKGRFTISRDNAKNTVYLQMNSLKPEDTAVYYCRERDYWGQGTQVTVSS,low polyreactivity
12,QVQLVESGGGLVQAGGSLRLSCAASGRIFTHNVMGWYRQAPGTERELVAAISGGGGSTYYADSVKGRFTLSRDNAKNNVYKQMNSLKPEDTAVYYCAKDNHYEADRYDYWGQGTQVTVSS,low polyreactivity
13,QVQLVESGGGLVQAGGSLRLSCAASGGIFYHNAMGWYRQAPGKERELVAAISGRGGRTYYADSVKGRFTISRDNAKNTVYLPMNSLKPEDTAVYYCNAVVYSPYRYEYWGQGTQVTVSS,low polyreactivity
14,QVQLVESGGGLVQAGGSLRLSCAASGRTFVGYAMGWYRQAPGKERELVAAISRTGGSTYYADSVKGRFTISRDNAKNTVYLQMNSLKPEDTAVYYCAASPKRVLRESGDYWGQGTQVTVSS,high polyreactivity
15,QVQLVESGGGLVQAGGSLRLSCAASGSTFATYAMGWYRPAPGKERELVAAITRGGRTNYADSVKGRFTISRDNAKNTVYLQMNSLKPEDTSVYYCAADYIYGYFWRFGYWGQGTQVTVSS,low polyreactivity
16,QVQLVESGGGLDQARGSLRLSCAASAPTFNSNAMGWYRQAPGKERDLVADINGGGSTYYADSVKGRFTISRDNAKNTVYLQMNSLKPEDTAVYYCAKCYTWYVWYPHGYWGQGTQVTVSS,low polyreactivity
17,QVQLVESGGRLVQAGGSLRISSAASRFILFPYAMGWYRQAPGKERELVAAIRSDDTTNYADSVKGRFTISRDNAKNTVYLQMNSLKPEDTAVYYCATACYSWVSYDYWGQGTQVTVSS,low polyreactivity
18,QVQLVESGGGLVQAGGSLRLSCAASGSIIASNAMGWYRHAPWKERELVAAITNGGRTNYADSVKGRFTISRDNAKNTVYLQMNSMKPEDTAVYYCDALWSRCAGFEYCGQGTQVTVSS,high polyreactivity
19,QVQLVESGGGLVQAGGSLRLSCAASGSILNNYAMGWYRQAPGKERELVAAISSSGGTNYADSVKGRFTISRDNAKNTVYLQMNSLKPEDTAVYYCNADVLDGGYDYWVQGTQVTVSS,low polyreactivity
20,QVQLVESGGRLVQEGRSLRLSCAASGSIFSRYAMGWYRQAPRKERELVAAITWSGGSTYYADSVKGRFTISRDNAKNNVYLQMNSLKPDDTAVYYCAAVGYAPYNHRYDSWGQGTQVTVSS,low polyreactivity
21,QVQLVETGGGLVLAGGSLRLSCAASGSTFRLYAMGWYRQAPGTARELVAAITSGGSTYYADAVKGRFTISRDNAKNTVYLQMNSLKPEDTAVYYCARLAGDSTYWWWLYLITQRDDYWGQGTQVTVSS,low polyreactivity
